Results reported in patent US9084734B2, “Peptide personal care compositions and methods for their use” (Danisco US Inc., priority 2005, dated 2015).
Bridge positions count the residues as written; N and C are the ends. Peptide text beside a SMILES is read from it.

Legend:
[1] = biological target: T1, Human VEGF165 (Homo sapiens, UniProt P15692); test: BIAcore binding analysis of VEGF-binding peptides (surface plasmon resonance); settings: 1:1 Langmuir binding; 1000 RU VEGF, 850 RU TNFα
T1 construct: purchased Biosource
T1 sequence (P15692 27-191 isoform P15692-4): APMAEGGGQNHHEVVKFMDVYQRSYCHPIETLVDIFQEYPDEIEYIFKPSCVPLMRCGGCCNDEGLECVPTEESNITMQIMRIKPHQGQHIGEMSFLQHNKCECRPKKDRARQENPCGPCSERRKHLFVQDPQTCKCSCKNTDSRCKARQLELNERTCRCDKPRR
Protocol: FIG. 3 provides results of a BIACORE binding analysis of VEGF binding peptides. Binding curves were obtained as described in the Examples. Data were fit to a two state reaction model with conformation change: Analyte (A) binds to ligand (B) to form complex AB.
In this Example, experiments conducted to assess the affinities of the peptides for VEGF are described. Affinities of the peptides for VEGF were measured using a BIAcore™-3000 surface plasmon resonance system (Biacore). A CM5 sensor chip was conditioned with 50 mM NaOH, 0.1% HCl, 0.1% SDS, and 0.08% H3PO4, and activated for covalent coupling of VEGF using N-ethyl-N′-(3-dimethylaminopropyl)-carbodiimide hydrochloride (EDC) and N-hydroxysuccinimide (NHS) according to the supplier's instructions (Biacore). Human VEGF165 (Biosource) was diluted to 5 μg/ml in 20 mM sodium acetate, pH 4.8 and injected at a flow rate of 2 μl/min to achieve approximately 1000 to 6000 response units (RU) of coupled protein. TNF-alpha (human TNF-alpha, Biosource, Int., Camarillo, Calif.) was similarly coupled to the CM5 sensor chip to approximately 850 to 3500 RU in the reference lane. A solution of 1 M ethanolamine was injected as a blocking agent. In some experiments, an additional solution of EDC and NHS were injected to improve baseline stability and a solution of 1 M ethanolamine injected as a blocking agent. The reference lane was activated with EDC and NHS and blocked with ethanolamine.
Peptides were synthesized using standard FMOC chemistry, purified by reverse phase HPLC to >95% purity (SynPep), and stored at 10 mg/mL in DMSO. For kinetic measurements, twofold serial diluted peptides in HBS-EP buffer, 0.01 M HEPES pH 7.4, 0.15 M NaCl, 3 mM EDTA, 0.005% Surfactant P20 (Biacore), were injected at 25° C. at a flow rate of 20 μL/min. Two-fold serial diluted DMSO samples and buffer samples were also injected for background subtraction. Kinetic parameters were calculated using BIAevaluation 3.1 software.

[2] = biological target: T2, VegF (Homo sapiens, UniProt P15692); test: Electrochemiluminescence (BioVeris) competition with Anti-VegF antibody for binding to VegF; settings: ECL labeled Anti-VegF antibody, biotinylated VegF; for competition with Anti-VegF antibody for binding to VegF: 2 h room temperature
T2 construct: purchased PeproTech
T2 sequence (P15692 27-191 isoform P15692-4): T1 sequence (P15692 27-191 isoform P15692-4)
Protocol: FIG. 19 provides a graph showing results from a competition analysis of 2BBlck81 versus anti-VegF antibody binding to VegF.
Briefly, after cleavage, the pH of the cleaved sample was adjusted to 5.5, the sample was then loaded onto the column (equilibrated with 25 mM MES pH 5.5). The free 2BBIck81 was washed through the column using 25 mM sodium acetate pH 5.0 while the BCE103 catalytic core remained bound to the resin. The 2BBIck81 fraction was concentrated by ultrafiltration and analyzed using an electrochemiluminescence (ECL) based binding assay (BioVeris). The Anti-VegF antibody (Santa Cruz) and VegF (PeproTech) were labeled with the electrochemiluminescent dye and biotin, respectively, as described by the manufacturer (BioVeris). All materials were in Dulbecco's PBS (Mediatech) supplemented with 0.1% TWEEN®-80. An initial dilution series of Anti-VegF antibody (125, 250 and 500 ng/ml) and VegF (100, 150, 200 and 250 ng/ml) were tested in the binding assay to determine the concentrations of each that would give a robust ECL signal.
For testing 2BBIck81 binding, 50 μL of 500 ng/ml ECL labeled Anti-VegF antibody, 50 μL of 250 ng/ml biotinylated VegF and 100 μL 2BBIck81 (series of 12.5, 15, 31.25, 62.5, 125, 250 or 500 ng/ml) were incubated at room temperature for 2 h with shaking. Then, 50 μL of 0.2 mg/ml streptavidin coated beads were added and the reaction was incubated at room temperature for 30 minutes. The ECL signal was measured using a BioVeris M8/384 Analyzer as described by the manufacturer (BioVeris).

[3] = biological target: T1, Human VEGF165; test: BIAcore binding analysis of BBI-VEGF; settings: refolded protein, trypsin and chymotrypsin coupled in remaining lanes
Protocol: In this Example, experiments conducted to determine the binding affinity of constructs produced as indicated in Example 9 are described. Affinities of BBI-VEGF constructs for VEGF were measured using BIAcore-3000 surface plasmon resonance (Biacore). A CM5 sensor chip was conditioned with 50 mM NaOH and activated for covalent coupling of VEGF using N-ethyl-N′-(3-dimethylaminopropyl)-carbodiimide hydrochloride (EDC) and N-hydroxysuccinimide (NHS) according to the supplier's instructions (Biacore). VEGF (human VEGF165, Biosource) was diluted to 5 μg/mL in 20 mM sodium acetate, pH 4.8, and injected at a flow rate of 2 μL/min to achieve approximately 1000 to 6000 response units (RU) of coupled protein. Trypsin and chymotrypsin were similarly coupled to the CM5 sensor chip to approximately 850 to 3500 RU in remaining lanes. A solution of 1M ethanolamine was injected as a blocking agent.

[4] = tested on: skin of individuals of skin type III and IV; test: Reduction of skin pigmentation induced by UVA exposure (MPPD), clinical tanning grade; type: in vivo, human; settings: for Day 13 Avg. Tanning Grade / Day 14 Avg. Tanning Grade / Day 15 Avg. Tanning Grade: 1.0 MPPD UVA daily on days 12-14, 0-10 scale; for Change on Day 13 (tanning grade minus day 12 grade) / Change on Day 14 (tanning grade minus day 12 grade) / Change on Day 15 (tanning grade minus day 12 grade): UVA-induced pigmentation; for Day 12 Avg. Tanning Grade: after 11 days of patches, before UVA exposure, 0-10 scale
Protocol: In this Example, experiments conducted to test the ability of BBI-AV to reduce skin pigmentation induced by UVA exposure are described. This study was conducted with 13 individuals of skin type III and IV based on The Fitzpatrick skin classification. On day one, each subject's minimal persistent pigment darkening dose (MPPD) was determined on the lower back of each individual, in an area that is equal in color to the area that received test material application. […] Subjects returned to the clinic 34 hours after the MPPD exposures were complete. The test sites were scored for pigment darkening using the following scale: • - no visible pigment darkening • ? questionable response; unclear • + slight darkening over essentially the whole irradiation field • ++ definite darkening over the whole irradiation field The site treated with the lowest dose of UVA producing a score of ‘+’ represented that subject's MPPD. On day two, sites of uniform color were marked on the lower back. The clinical grader assessed the degree of tan at each site using a 0-10 scale (0=very slight tan and 10=very deep tanning.) Then the Test material (0.1% and 0.9% of BBI-AV) and the vehicle control applied under occlusion. A volume of 150 μl was dosed onto each patch. The occlusive patches used hte these experiments were the same as described in Example 2. As described in Example 2, the patches remained in place until the next day, when a clinician removed them. This patching procedure was repeated for 11 days. On the days 12-14, the clinician removed the patches that were applied the previous day and the site was gently wiped to remove residual test material. The clinical grader assessed the degree of tan at each site using a 0-10 scale (0=no tan and 10=very deep tanning.) After grading was complete, each site was exposed to 1.0 MPPD of UVA as described for Day 1. New patches were applied after exposures were completed. On day 15, patches were removed and the degree of tan at each site was assessed using a 0-10 scale (0=no tan and 10=very deep tanning). […] In this table, the tanning grade results are shown as the results obtained for day 12 subtracted from grades of days 13, 14 and 15.

[5] = tested on: skin of subjects with Fitzpatrick skin types III or IV; test: Skin lightening study, occlusive patches on lower back, clinical tanning grade; type: in vivo, human
Protocol: In this Example, experiments conducted to assess the skin lightening capabilities of BBI-AV are described. Thirteen subjects, ages 18-65, with Fitzpatrick skin types III or IV participated in this 22-day study. The Fitzpatrick skin classification is based on the skin's unprotected response to the first 30 to 45 minutes of sun exposure following a winter season without sun exposure. The categories of skin types are:
Five test sites of uniform color were marked on the lower back of each subject. The clinical grader assessed the degree of tan at each site using a 0-10 scale (0=very slight tan and 10=very deep tanning.). Each subject was pre-treated with one concentration of Molecule A, two concentrations of Molecule B, vehicle control buffer, and an untreated site for 11 consecutive days. Approximately 150 uL of test materials (0.1% and 0.9% of BBI-AV) and vehicle control were dosed onto the lower back using occlusive patches. Occlusive patches consisted of a Webril® (non-woven cotton) pad held to the skin with a porous, hypoallergenic tape (e.g., SCANPORE® or MICROPORE®). A strip of BLENDERM® tape equal in width of the cotton pad covered the outside of the tape to provide the occlusive patch. Patches remained in place until a clinician removed them the next day. This patching procedure was repeated for 11 days.
On day 12, the clinician removed the patches that were applied the previous day and the site was gently wiped to remove residual test material. The clinical grader assessed the degree of tan at each site using a […].

## CC[C@H](C)[C@@H]1NC(=O)[C@H](CC(=O)O)NC(=O)[C@@H](NC(=O)[C@H](CC(N)=O)NC(=O)[C@@H]2CCCN2C(=O)[C@H](CCC(=O)O)NC(=O)[C@@H](N)C(C)C)CSSC[C@@H](C(=O)N[C@@H](Cc2ccccc2)C(=O)N[C@@H](CCC(=O)O)C(=O)N[C@@H](CCCNC(=N)N)C(=O)N[C@@H](CC(C)C)C(N)=O)NC(=O)[C@H](CCC(=O)O)NC(=O)[C@H](Cc2c[nH]c3ccccc23)NC(=O)[C@H](CCC(=O)O)NC(=O)[C@H](Cc2c[nH]c3ccccc23)NC(=O)[C@H](CCSC)NC(=O)[C@H](C(C)C)NC(=O)[C@H](Cc2c[nH]cn2)NC1=O [v114, reference compound] (H-VEPNCDIHVMWEWECFERL-NH2; disulfide 5-15; N-terminus and C-terminus assumed)
[1]
  Kd: 223 nM
  kd1: 0.167 s⁻¹

B1: 2BBIck81: BBI with the grafted CK37281 peptide in the chymotrypsin loop (protein)
chain: DDESSKPCCDQCACTKSNPPQCRCSDMRLNSCHSACKSCACYNLYGWTCFCVDITDFCYEPCKPSEDDKEN
[2]
  competition for VegF binding compared with synthesized CK37281 peptide: competed for VegF binding better than the synthesized CK37281 peptide itself
  competition with Anti-VegF antibody for binding to VegF: competed with the Anti-VegF antibody for binding to VegF at micromolar concentrations

B2: 1BBIck81: BBI with the grafted CK37281 peptide in the trypsin loop (protein)
chain: DDESSKPCCDQCACYNLYGWTCRCSDMRLNSCHSACKSCICALSYPAQCFCVDITDFCYEPCKPSEDDKEN
[2]
  competition with Anti-VegF antibody for binding to VegF: also competed with the Anti-VegF antibody

B3: BBI-VEGF1: BBI-VEGF fusion (SEQ ID NO:22) with only one of the binding loops replaced (protein)
chain: DDESSKPCCDQCACYNLYGWTCRCSDMRLNSCHSACKSCICALSYPAQCFCVDLTDFCEPCKPSEDDKEN
modifications: synthetic fusion peptide
[3]
  specific/selective binding to VEGF: binds specifically to VEGF
[3]; listed as BBI-VEGF
  specific/selective binding to VEGF: Selective binding affinity to VEGF

B4: BBI-AV: BBI sequences having anti-VEGF (AV) sequences incorporated; primary active of the personal care compositions (protein)
chain: B3 chain
[4]; 0.1% BBI-AV
  Day 13 Avg. Tanning Grade: 5.08
  Day 14 Avg. Tanning Grade: 5.13
  Day 15 Avg. Tanning Grade: 5.5
  Change on Day 13 (tanning grade minus day 12 grade): 0.32
  Change on Day 14 (tanning grade minus day 12 grade): 0.37
  Change on Day 15 (tanning grade minus day 12 grade): 0.74
  Day 12 Avg. Tanning Grade: 4.76
[4]; 0.1% and 0.9% of BBI-AV under occlusion, 1.0 MPPD of UVA on days 12-14
  UVA induced pigmentation: UVA induced pigmentation is decreased
[4]; 0.9% BBI-AV
  Day 13 Avg. Tanning Grade: 4.92
  Day 14 Avg. Tanning Grade: 5.04
  Day 15 Avg. Tanning Grade: 5.5
  Change on Day 13 (tanning grade minus day 12 grade): 0.23
  Change on Day 14 (tanning grade minus day 12 grade): 0.35
  Change on Day 15 (tanning grade minus day 12 grade): 0.81
  Day 12 Avg. Tanning Grade: 4.69
[5]; 0.1% and 0.9% of BBI-AV, 150 uL under occlusive patches for 11 days, graded day 12
  change in tanning grade versus vehicle control: greater change in the tanning grade
[5]; 0.9% BBI-AV, Day 11 versus Day 1
  Change in Average Tanning Grade: −0.27
[5]; 0.9% BBI-AV, occlusive patch on lower back, baseline before treatment, clinical grader scale
  Average Day 1 Tanning Grade: 4.96
[5]; 0.9% BBI-AV, occlusive patches for 11 consecutive days, clinical grader scale
  Average Day 11 Tanning Grade: 4.69
